# Data taken from the supplement of paper PMC6757056.
# ± gives the standard deviation of the averaged measurements.
# B1: library; a variant is named by its letters at N, in order (parent)
# chain: GCUGUCACCGGAAUACCAGCAUCGUCUUGAUGCCCUUGGAAGUCCGGUCUGAUGAGUCCNNNNNGGACGAAACAGC
# Key:
# theophylline [1] = variants of: B1; assay: FACS-Seq fitted mean relative fluorescence mCherry/BFP without ligand (log10 relative fluorescence); higher = higher reporter protein expression; conditions: HEK293T, ligand present: no
# Protocol: (§1)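 Hammerhead (sTRSV) ribozyme switch libraries with a ligand aptamer grafted on stem I and a randomized N4-6 loop II, cloned into the 3' UTR of mCherry and transiently transfected into HEK293T cells; RNA-Seq 72 h post transfection with ligand added 1 h before transfection; RNA read count / plasmid DNA read count normalized to the non-cleaving sTRSVctl (x100), log10; sequences with >100 DNA reads. FACS-Seq: lentiviral library sorted into 6 bins after 48 h ligand, log-normal fit mean of mCherry/BFP scaled to controls. Printed sequences are partial switch sequences.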
# theophylline [2] = variants of: B1; assay: normalized RNA/DNA level with ligand (relative to sTRSVctl = 100) (log10 (% of sTRSVctl)); higher = less ribozyme self-cleavage, higher mRNA level; conditions: ligand concentration (+) RNA-Seq: 5 mM, HEK293T, reporter: mCherry (pCS4076), ligand present: yes
# Protocol: as §1
# theophylline [3] = variants of: B1; assay: normalized RNA/DNA level without ligand (relative to sTRSVctl = 100) (log10 (% of sTRSVctl)); higher = less ribozyme self-cleavage, higher mRNA level; conditions: HEK293T, reporter: mCherry (pCS4076), ligand present: no
# Protocol: as §1
# theophylline [4] = variants of: B1; assay: FACS-Seq fitted mean relative fluorescence mCherry/BFP with ligand (log10 relative fluorescence); ligand concentration (+) FACS-Seq: 1 mM; higher = higher reporter protein expression; conditions: HEK293T, ligand present: yes
# Protocol: as §1
Variant,FACS-Seq fitted mean (log10) (theophylline [1]),normalized RNA/DNA level with ligand (log10) (theophylline [2]),normalized RNA/DNA level without ligand (log10) (theophylline [3]),FACS-Seq fitted mean (log10) (theophylline [4])
GAAUC,0.7173 ± 0.0037,1.962 ± 0.011,1.855 ± 0.015,0.683 ± 0.059
GAAUA,1.08 ± 0.19,1.85 ± 0.068,1.627 ± 0.0033,0.942 ± 0.085
GAAUU,0.234 ± 0.038,2.02 ± 0.045,1.75 ± 0.018,0.4307 ± 0.002
GAAUG,0.627 ± 0.023,1.9 ± 0.028,1.6 ± 0.093,0.713 ± 0.037
CAAUC,0.844 ± 0.034,1.94 ± 0.053,1.83 ± 0.13,0.825 ± 0.014
CAAUA,0.192 ± 0.018,1.96 ± 0.054,1.16 ± 0.17,0.785 ± 0.033
CAAUU,0.59 ± 0.019,2.02 ± 0.033,1.65 ± 0.096,0.775 ± 0.021
GAAGU,0.25 ± 0.013,1.94 ± 0.12,1.68 ± 0.17,0.483 ± 0.031
GAAGG,0.991 ± 0.26,1.87 ± 0.011,1.72 ± 0.12,0.957 ± 0.057
CACGC,0.917 ± 0.026,2.04 ± 0.065,1.996 ± 0.013,1.04 ± 0.043
CACGA,0.805 ± 0.037,1.998 ± 0.0074,1.76 ± 0.036,0.917 ± 0.012
GACUU,0.702 ± 0.12,2.1 ± 0.051,1.79 ± 0.038,0.696 ± 0.051
GACUG,0.5397 ± 0.0016,1.98 ± 0.076,1.804 ± 0.0069,0.61 ± 0.081
AAAUC,0.4981 ± 0.0025,1.89 ± 0.034,1.9 ± 0.099,0.511 ± 0.021
AAAUA,0.6481 ± 0.0057,1.99 ± 0.038,1.62 ± 0.16,0.806 ± 0.062
AAAUU,0.984 ± 0.045,2.02 ± 0.1,1.82 ± 0.082,1.05 ± 0.06
AAAUG,0.571 ± 0.038,2.03 ± 0.022,1.75 ± 0.054,0.607 ± 0.029
AACCG,0.924 ± 0.031,2 ± 0.031,1.89 ± 0.071,1.13 ± 0.098
AACCU,0.83 ± 0.037,2.06 ± 0.1,1.949 ± 0.017,0.698 ± 0.016
AACCC,0.867 ± 0.012,2.042 ± 0.014,1.97 ± 0.031,0.862 ± 0.045
AACCA,0.923 ± 0.12,2.001 ± 0.0053,1.82 ± 0.047,0.908 ± 0.065
UACGC,0.81 ± 0.14,2.01 ± 0.038,1.98 ± 0.17,0.916 ± 0.039
UACGU,0.851 ± 0.024,2.022 ± 0.012,1.92 ± 0.014,0.816 ± 0.023
UACGA,0.287 ± 0.021,2.07 ± 0.025,1.72 ± 0.097,0.324 ± 0.024

Variant,FACS-Seq fitted mean (log10) (theophylline [1]),normalized RNA/DNA level with ligand (log10) (theophylline [2]),normalized RNA/DNA level without ligand (log10) (theophylline [3]),FACS-Seq fitted mean (log10) (theophylline [4])
CACCU,0.774 ± 0.091,2.06 ± 0.075,1.78 ± 0.097,0.9241 ± 4.2e-05
CACCA,0.7294 ± 0.00094,1.97 ± 0.083,1.8 ± 0.071,0.792 ± 0.053
CACCC,0.8 ± 0.07,1.92 ± 0.06,1.93 ± 0.024,0.762 ± 0.018
CACAU,0.589 ± 0.032,1.964 ± 0.0051,1.68 ± 0.099,0.693 ± 0.025
CACAA,0.062 ± 0.032,2.014 ± 0.0084,1.56 ± 0.11,0.3195 ± 0.0011
CACAC,0.945 ± 0.11,2.02 ± 0.044,1.88 ± 0.11,1.03 ± 0.2
UACCU,-0.0361 ± 0.0029,1.988 ± 0.00013,1.99 ± 0.099,0.0166 ± 0.074
UACCC,0.622 ± 0.13,2.02 ± 0.026,2.04 ± 0.048,0.599 ± 0.045
UACCG,1.2 ± 0.1,2.01 ± 0.067,2 ± 0.032,1.09 ± 0.086
UACCA,0.405 ± 0.01,1.9 ± 0.086,1.82 ± 0.098,0.436 ± 0.11
UAAGC,1.08 ± 0.011,1.94 ± 0.059,1.92 ± 0.1,1.04 ± 0.073
UAAGU,0.651 ± 0.24,2.03 ± 0.044,1.86 ± 0.088,0.751 ± 0.013
UAAGG,0.645 ± 0.086,2.1 ± 0.067,1.89 ± 0.041,0.739 ± 0.044
GACAU,0.478 ± 0.063,2.04 ± 0.032,1.859 ± 0.0069,0.576 ± 0.07
GACAG,0.769 ± 0.29,1.952 ± 0.0094,1.77 ± 0.055,0.612 ± 0.13
GACAA,0.619 ± 0.048,1.938 ± 0.019,1.56 ± 0.022,0.731 ± 0.017
GACCU,1.03 ± 0.1,1.99 ± 0.064,1.95 ± 0.06,1.03 ± 0.15
GACGG,0.642 ± 0.057,1.93 ± 0.045,1.71 ± 0.11,0.887 ± 0.096
GACGU,0.7517 ± 0.0053,1.93 ± 0.027,1.64 ± 0.15,1.03 ± 0.022
AACUA,0.84 ± 0.078,2.01 ± 0.045,1.77 ± 0.053,1 ± 0.015
AACUG,0.814 ± 0.11,2 ± 0.12,1.8 ± 0.18,0.939 ± 0.032
AACUC,0.94 ± 0.044,2.01 ± 0.11,1.916 ± 0.016,0.924 ± 0.031
AACUU,1.01 ± 0.076,1.9847 ± 0.0011,1.89 ± 0.059,0.981 ± 0.015
AACGC,0.98544 ± 0.00052,2.135 ± 0.0047,1.94 ± 0.072,0.922 ± 0.023

Variant,FACS-Seq fitted mean (log10) (theophylline [1]),normalized RNA/DNA level with ligand (log10) (theophylline [2]),normalized RNA/DNA level without ligand (log10) (theophylline [3]),FACS-Seq fitted mean (log10) (theophylline [4])
AACGA,0.235 ± 0.038,1.96 ± 0.1,1.53 ± 0.17,0.536 ± 0.026
AACGU,0.773 ± 0.075,1.965 ± 0.017,1.793 ± 0.011,0.854 ± 0.2
AACGG,0.852 ± 0.14,2 ± 0.049,1.8 ± 0.057,0.998 ± 0.083
UAAUA,0.553 ± 0.011,2.03 ± 0.11,1.56 ± 0.15,0.868 ± 0.015
UAAUG,0.816 ± 0.076,1.929 ± 0.0084,1.814 ± 0.0095,0.887 ± 0.071
UAAUC,0.913 ± 0.018,1.9 ± 0.047,1.94 ± 0.098,0.9083 ± 0.0059
UAAUU,0.64 ± 0.039,2 ± 0.023,1.84 ± 0.062,0.613 ± 0.056
AACAC,0.834 ± 0.025,1.94 ± 0.048,1.91 ± 0.075,0.925 ± 0.089
AACAA,0.377 ± 0.039,1.99 ± 0.086,1.45 ± 0.25,0.704 ± 0.013
AACAU,0.214 ± 0.0061,1.93 ± 0.1,1.75 ± 0.067,0.439 ± 0.045
AACAG,0.587 ± 0.0063,1.855 ± 0.014,1.78 ± 0.055,0.677 ± 0.035
UACAA,0.427 ± 0.022,1.972 ± 0.012,1.6 ± 0.032,0.553 ± 0.018
UACAC,0.83 ± 0.034,1.98 ± 0.02,1.99 ± 0.025,0.695 ± 0.097
UACAG,1.02 ± 0.041,1.96 ± 0.051,1.908 ± 0.018,0.918 ± 0.052
UACAU,0.684 ± 0.015,2.03 ± 0.17,1.91 ± 0.14,0.722 ± 0.0088
UACUC,0.1 ± 0.14,2.1 ± 0.021,2.02 ± 0.039,0.351 ± 0.022
UACUG,0.382 ± 0.044,1.9807 ± 0.00035,1.94 ± 0.04,0.421 ± 0.12
UACUA,0.959 ± 0.069,1.97 ± 0.11,1.67 ± 0.042,1.05 ± 0.071
CAAGU,0.759 ± 0.043,1.976 ± 0.016,1.94 ± 0.067,0.761 ± 0.14
AAAGG,0.199 ± 0.022,1.976 ± 0.019,1.71 ± 0.033,0.426 ± 0.04
AAAGU,0.9033 ± 0.0058,1.923 ± 0.018,1.58 ± 0.018,1.1 ± 0.046
CACUU,0.741 ± 0.014,2 ± 0.028,1.756 ± 0.0024,1.028 ± 0.0013
CACUA,0.228 ± 0.023,1.99 ± 0.058,1.44 ± 0.063,0.437 ± 0.048
CACUC,1 ± 0.12,2 ± 0.11,1.98 ± 0.096,0.969 ± 0.1
